How the values were obtained:
cardiomyocytes (CM) [1] = assay: CM division lineage tracing in α-MHC-MADM mice post-MI; type: in vivo, mouse
Method: All animal procedures were performed under protocols approved by the Temple University Animal Care and Use Committee. Male and female C57BL6 mice were used. Different modRNAs (100 μg/heart) were injected directly into the myocardium in open chest surgery. Three to ten animals used for each experiment. For mice survival, C57BL6 mice (10-12-weeks-old) treated with Luc or PSAT1 modRNAs (n=10) post induction of MI and were followed for the indicated time. Deaths were monitored and documented over time. Tamoxifen-inducible CM-restricted MADM mice (α-MHC-MADM mice) mice were generated by crossing MADM mice (Jackson laboratory) to […].^Tg(Myh6-cre/Esr1*) 1Jmk/J (Cat no. 005657) mice to get α-MHC-MADM mice (Yuko, A. E., et al., 2021, Redox Biology, 47:102162). Tamoxifen (Sigma-Aldrich) was dissolved in sesame oil at 10 mg/ml as stock solution. To induce Cre activation, tamoxifen was administered to mice by intraperitoneal (IP) injection five times (48 h interval between administrations) at 40 mg/kg body weight for adult mice (Yuko, A. E., et al., 2021, Redox Biology, 47:102162). The tissues were harvested at mentioned time for analysis.
To analyze the cardiomyocyte division in vivo post-MI, cardiomyocyte specific mosaic analysis with double markers (MADM) mice, generated as described previously, were used (Yuko, A. E., et al., 2021, Redox Biology, 47:102162). The CM-specific transgenic mice were generated by crossing MADM mice (Jackson laboratory) to B6.FVB (129)-A1cf.^Tg(Myh6-cre/Esr1*) 1 Jmk/J (Cat no. 005657) mice to get α-MHC-MADM mice. In the MADM system, because of interchromosomal Cre-loxP recombination after S phase of the cell cycle, the daughter cells will get labeled (single colored) with either GFP (Green) or RFP (Red). The MADM single-labeling can only be attained by end of the cell cycle through cytokinesis. The inducible MADM system warrants temporal control of recombination and offers direct evidence for cell division. […]

cardiomyocytes (CM) [2] = assay: Mouse MI model: TUNEL staining of CM apoptosis; type: in vivo; details: vs Luc modRNA
Method: All surgical and experimental procedures with mice were performed in accordance with protocols approved by Institutional Animal Care and Use Committees at Temple University Animal Care and Use Committee (IACUC). C57BL6 or CM-specific MADM mice (8-12-weeks-old) were anesthetized with isoflurane. MI was induced by permanent ligation of the LAD, as previously described (Garikipati, V. N. S., et al., 2019, Nature Communications, 10:4317). Briefly, the left thoracic region was shaved and sterilized. After intubation, the heart was exposed through a left thoracotomy. A suture was placed to ligate the LAD. The thoracotomy and skin were sutured closed in layers. Excess air was removed from the thoracic cavity, and the mouse was removed from ventilation when normal breathing was established. In order to determine the effect of modRNA on cardiovascular outcome after MI, modRNAs (100 μg/heart) were injected into the infarct zone immediately after LAD ligation (Magadum A., et al., Circulation. 2020, 141 (15): 1249-1265). For examination of heart histology, hearts were collected at the end of each study, quickly washed in PBS, weighed, and fixed in 4% PFA for cryo-sectioning and immunostainings. In all experiments, the surgeon was blinded to the treatment group. For assessment of heart histology, hearts were collected at the end of each study. The hearts were excised, briefly washed in PBS, perfused with perfusion buffer, weighed and fixed in 4% PFA at 4° C. overnight. The heart blocks were transverse sectioned at 6-8 μm using cryostat. The heart sections were further processed for histological evaluation using immunostaining (see below) or histological scar staining using Masson's trichrome staining kit (Sigma) according to standard procedures. Measuring the ratio of heart weight to body weight was done using a scale. This ratio was calculated as the heart tissue weight relative to the mouse total body weight in grams (g).
Mice hearts were harvested, weighed, and fixed in 4% PFA/PBS overnight on shaker and then washed with PBS for 1 hour and incubated in 30% sucrose/PBS at 4° C. for 12-18 hours. Hearts were then fixed in OCT and frozen at −80° C. (Magadum A., et al., Circulation. 2020, 141 (15): 1249-1265). Transverse heart sections (6-8 μm) were made using a cryostat. […] For immunostaining with wheat germ agglutinin (WGA) for CM size quantification, images were captured at 40× magnification, and ImageJ was used to determine the area of each cell. Quantitative analyses involved counting of multiple fields from 5-8 mouse hearts per group, and 3-4 sections/heart (˜50 cells per field assessed, for a total ˜250 cells per sample). […] BrdU positive CMs were counted in multiple fields from three independent samples per group and 3 sections/heart. […]

PSAT1 = PSAT1 protein expression in NRVM after modRNA transfection; type: cell-based, rat; details: in vitro modRNA transfection

B1: PSAT1 modRNA: modified mRNA with N1-methylpseudouridine, transcribed in vitro, encoding phosphoserine aminotransferase 1 (ORF SEQ ID NO: 1, RNA SEQ ID NO: 2) (nucleic acid)
chain: AUGGAAGCCACCAAGCAAGUGGUUAACUUUGGGCCCGGGCCUGCCAAGCUGCCACACUCGGUAUUGUUGGAGAUCCAGAAGCAGCUACUAGACUACAGAGGACUCGGCAUCAGUGUGCUCGAAAUGAGUCACAGGUCAUCAGAUUUUGCCAAGAUUAUUGGCAAUACAGAGAAUCUUGUGAGGGAAUUGCUAGCUGUUCCCAACAACUACAAGGUGAUCUUUGUACAAGGAGGUGGGUCUGGCCAGUUCAGUGCUGUCCCCUUAAAUCUGAUUGGCCUGAAAGCUGGAAGGAGUGCUGACUACGUGGUGACCGGAGCUUGGUCAGCUAAGGCUGCGGAAGAAGCCAAGAAGUUUGGAACGGUGAACAUUGUCCACCCUAAACUUGGAAGUUACACAAAAAUUCCAGACCCAAGCACCUGGAACCUCAACCCGGACGCCUCCUAUGUAUACUUCUGUGCAAACGAGACUGUGCACGGGGUGGAGUUUGACUUCGUACCUGACGUCAAGGGAGCGGUGCUGGUCUGUGACAUGUCCUCAAACUUCUUAUCCAGGCCGGUGGAUGUUUCCAAGUUUGGUGUGAUUUUCGCUGGUGCUCAGAAGAAUGUUGGCUCUGCCGGGGUGACGGUGGUGAUUGUCCGGGAUGACCUGCUGGGGUUCUCGCUCAGAGAGUGCCCAUCAGUCCUUGACUACAAAGUGCAGGCUGGGAACAACUCUUUGUAUAACACACCUCCGUGCUUCAGCAUCUACGUCAUGGGCAUGGUCCUGGAAUGGAUCAAGAACAACGGCGGGGCCGCAGCCAUGGAGAAGCUCAGCUCCAUCAAAUCCCAAAUGAUUUAUGAGAUCAUUGAUAAUUCUCAAGGAUUUUAUGUAUGCCCAGUGGAGCGCCAGAAUAGAAGCAGGAUGAACAUCCCAUUUCGCAUUGGCAACGCCAAAGGAGACGAAGCUUUGGAAAAGCGGUUUCUUGACAAGGCGGUAGAACUCAACAUGAUCUCCUUGAAGGGGCACAGGUCAGUGGGAGGCAUUCGUGCCUCUCUGUAUAACGCUGUCACAACCGAAGACGUUGAGAAGCUGGCGGCCUUCAUGAAGAAUUUCUUGGAGAUGCAUCAGCUGUGA
modifications: N1-methylpseudouridine
B1 was tested, and the “location of the increase in single color CMs in the heart” value (cardiomyocytes (CM) [1]; 1-month post-MI) was “mainly in the infarct border zone”, the “% single color (green or red positive) CMs compared to total labeled CMs” value (cardiomyocytes (CM) [1]; 1-month post-MI, compared to Luc modRNA) was “increased” and the “nucleation of the majority of single color CMs” value (cardiomyocytes (CM) [1]; 28 days post-MI) was “mononucleated”. The “TUNEL+ CMs” value (cardiomyocytes (CM) [2]; 2 days post-MI) was “significantly decreased”, the “TUNEL+ CMs” value (cardiomyocytes (CM) [2]; 7 days post-MI) was “significantly decreased” and the “PSAT1 protein expression in NRVM (onset and duration)” value (PSAT1) was “achieved within hours of administration and lasted up to several days”.
